# Test results taken from article PMC12455010.
# B1: rat Kv3.4 (rKv3.4): tunicamycin (protein)
# parent chain: MISSVCVSSYRGRKSGNKPPSKTCLKEEMAKGEASEKIIINVGGTRHETYRSTLRTLPGTRLAWLADPDGGGRPESDGGGAGSSGSSGGGGGCEFFFDRHPGVFAYVLNYYRTGKLHCPADVCGPLFEEELTFWGIDETDVEPCCWMTYRQHRDAEEALDIFESPDGGGGGAGPGDEAGDDERELALQRLGPHEGGSGPGAGSGGCRGWQPRMWALFEDPYSSRAARVVAFASLFFILVSITTFCLETHEAFNIDRNVTEIHRVGNITSVRFRREVETEPILTYIEGVCVMWFTLEFLVRIVCCPDTLDFVKNLLNIIDFVAILPFYLEVGLSGLSSKAARDVLGFLRVVRFVRILRIFKLTRHFVGLRVLGHTLRASTNEFLLLIIFLALGVLIFATMIYYAERIGARPSDPRGNDHTDFKNIPIGFWWAVVTMTTLGYGDMYPKTWSGMLVGALCALAGVLTIAMPVPVIVNNFGMYYSLAMAKQKLPKKRKKHVPRPPQLESPIYCKSEETSPRDSTYSDTSPPAREEGMVERKRADSKQNGDANAVLSDEEGAGLTQPLASAPTPEERRALRRSGTRDRNKKAAACFLLSAGDYACADGSVQKEGSVEPKACVPVSHTCAL
# B2: rat Kv3.4 (rKv3.4): cytochalasin B (protein)
# parent chain: B1 parent chain
# B3: rat Kv3.4 (rKv3.4): low-glucose medium (protein)
# parent chain: B1 parent chain
# B4: rat Kv3.4 (rKv3.4): siGlut1 (protein)
# parent chain: B1 parent chain
# B5: rat Kv3.4 (rKv3.4): glucose recovery (protein)
# parent chain: B1 parent chain
# B6: rat Kv3.4 (rKv3.4): mannose recovery (protein)
# parent chain: B1 parent chain
# B7: rat Kv3.4 (rKv3.4): N257/266Q (protein)
# parent chain: B1 parent chain
# B8: rat Kv3.4 (rKv3.4): N257Q (protein)
# parent chain: B1 parent chain
# B9: rat Kv3.4 (rKv3.4): N266Q (protein)
# parent chain: B1 parent chain
# B10: rat Kv3.4 (rKv3.4): kifunensine (Kf) (protein)
# parent chain: B1 parent chain
# B11: rat Kv3.4 (rKv3.4): swainsonine (Sw) (protein)
# parent chain: B1 parent chain
# What was measured:
# [1] = automated whole-cell patch clamp, inactivation width at +80 mV
# [2] = cell surface biotinylation, western blot; conditions: glycan lost
# [3] = whole-cell patch clamp in CHO; conditions: glycan lost; control: wild type
# [4] = glycan changed form, control: untreated
# [5] = glycan changed form, control: low glucose
# [6] = glycan lost, control: wild type
protein,measurement,setting,value
B1,other: channel inactivation delay and its heterogeneity,"[1]; glycan lost, control: untreated",decreases
same,localisation_or_trafficking,[2]; control: untreated,no change
B2,other: channel inactivation delay and its heterogeneity,[1]; [4],decreases
B3,other: channel inactivation delay and its heterogeneity,[1]; [4],decreases
B4,other: channel inactivation delay and its heterogeneity,"[1]; glycan changed form, control: siNeg",decreases
B5,other: channel inactivation delay and its heterogeneity,[1]; [5],increases
B6,other: channel inactivation delay and its heterogeneity,[1]; [5],increases
B7,localisation_or_trafficking,[2]; control: wild type,no change
B8,other: channel inactivation delay and its heterogeneity,[1]; [6],decreases
same,other: channel current,[3],decreases
same,localisation_or_trafficking,[2]; control: wild type,no change
B9,other: channel inactivation delay and its heterogeneity,[1]; [6],decreases
same,other: channel current,[3],decreases
same,localisation_or_trafficking,[2]; control: wild type,no change
B10,other: channel inactivation delay and its heterogeneity,[1]; [4],decreases
B11,other: channel inactivation delay and its heterogeneity,[1]; [4],decreases
